Measurements published in patent publication US20260250398A1.

Target: FZD/LRP
Assay: cell-based or functional assay

TOPFLASH % Wnt Maxima: 100 % Wnt Maxima
TOPFLASH EC50: 6 nM
Substance: Wnt3a, recombinantly produced ligand
